Reference: publication PMC2377097

Molecular target: Unc45b^Flag, bacteria expressed and purified (mouse) (UniProt Q8CGY6)
Assay: pull-down; apparent; skeletal MD::GFP synthesized in the coupled assay, incubated with 0-2000 nM Unc45b^Flag 1 hr at 25°C, then anti-Flag beads 1 hr at 25°C; silver stain and autoradiography

Sequence of Unc45b^Flag, bacteria expressed and purified (mouse) (Q8CGY6 whole entry): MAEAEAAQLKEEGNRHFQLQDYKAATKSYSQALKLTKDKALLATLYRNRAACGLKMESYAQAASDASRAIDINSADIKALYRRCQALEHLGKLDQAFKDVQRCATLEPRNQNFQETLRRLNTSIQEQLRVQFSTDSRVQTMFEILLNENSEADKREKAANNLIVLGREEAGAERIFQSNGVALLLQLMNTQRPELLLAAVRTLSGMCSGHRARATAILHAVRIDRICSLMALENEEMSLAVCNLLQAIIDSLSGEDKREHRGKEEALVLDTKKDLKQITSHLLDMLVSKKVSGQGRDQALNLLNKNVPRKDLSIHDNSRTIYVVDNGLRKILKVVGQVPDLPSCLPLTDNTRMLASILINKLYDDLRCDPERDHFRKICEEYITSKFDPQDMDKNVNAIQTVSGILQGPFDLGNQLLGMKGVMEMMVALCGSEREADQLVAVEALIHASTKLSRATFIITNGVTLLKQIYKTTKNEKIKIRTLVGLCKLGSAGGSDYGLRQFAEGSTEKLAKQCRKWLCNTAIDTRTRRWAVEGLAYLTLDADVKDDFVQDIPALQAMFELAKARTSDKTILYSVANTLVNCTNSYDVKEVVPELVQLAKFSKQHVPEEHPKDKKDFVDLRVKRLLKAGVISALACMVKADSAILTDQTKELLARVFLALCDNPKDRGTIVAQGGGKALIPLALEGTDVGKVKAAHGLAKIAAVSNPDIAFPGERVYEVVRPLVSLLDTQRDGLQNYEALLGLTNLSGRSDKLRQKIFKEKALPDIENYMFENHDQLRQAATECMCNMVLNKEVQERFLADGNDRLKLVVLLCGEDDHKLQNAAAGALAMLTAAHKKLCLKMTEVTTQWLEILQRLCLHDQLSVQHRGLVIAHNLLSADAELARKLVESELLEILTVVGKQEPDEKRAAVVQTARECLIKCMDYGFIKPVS

In the case of “skeletal muscle MD::GFP chimera (Sk795GFP) (domain or fragment)”, the Kd is reported as 510 nM.
